Earlier results as cited in paper PMC10361579.
Several values for one entry are separate records, joined by “and”; a condition that tells them apart may be missing. Equal entries are not always repeated.

Assays:
[1] = target: classical cadherin (strand-swap dimer) (UniProt P12830)
[2] = target: classical cadherin (X-dimer) (UniProt P12830)

Kd [1]	Kd [2] [µM]	Substance
64 µM and 97 µM		classical cadherin (strand-swap dimer) (from UniProt P12830)
	916	classical cadherin (X-dimer) (from UniProt P12830)
